Assay results reported in patent US20160208003A1 (AFFITECH RESEARCH, published 2016).
“And” between values parts separate entries of the source, which are not always exact repeats. Equal values may be shown once.

T1: human CC chemokine receptor 4 (CCR4) (human, UniProt P51679 1-360)
T1 sequence (looked up): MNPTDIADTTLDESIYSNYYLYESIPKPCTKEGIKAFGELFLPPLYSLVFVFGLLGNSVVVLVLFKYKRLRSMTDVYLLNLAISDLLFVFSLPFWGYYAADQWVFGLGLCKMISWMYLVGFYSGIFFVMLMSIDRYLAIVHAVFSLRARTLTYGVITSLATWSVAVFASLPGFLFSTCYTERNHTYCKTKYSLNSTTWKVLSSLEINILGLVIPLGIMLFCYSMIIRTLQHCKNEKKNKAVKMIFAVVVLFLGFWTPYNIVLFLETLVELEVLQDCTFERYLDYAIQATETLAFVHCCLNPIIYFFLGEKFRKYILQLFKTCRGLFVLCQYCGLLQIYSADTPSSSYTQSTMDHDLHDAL


Experiments:
[1] = target: T1, human CC chemokine receptor 4 (CCR4); experiment: cell-based or functional assay
[2] = target: T1, human CC chemokine receptor 4 (CCR4); experiment: calculated from the IC50; DT-40-CCR4+ cells, competitor 3.3 nM biotinylated IgG 9E
Method: (§1) DT40 and CCRF-CEM cells were cultivated as described in Example 2. The cells were harvested from culture flasks, washed 2 times with PBS (400×g, 5 min, 4° C.) and resuspended in PBS containing 0.2% BSA and 0.09% NaN3. 1×10^5 cells per well were aliquoted into V-shaped 96-well plates (Griner Bio-One, Frikenhausen, Germany). Cells were centrifuged (400×g, 5 min, 4° C.) and resuspended in 50 μl IgG 9E10J or KM3060var (dilution series starting at 5 μg/ml) mixed with biotinylated competitor antibody 9E (0.1 or 0.5 μg/ml). The cells were incubated for 2 hours at 4° C., mixing with a pipette every 45 min. The cells were washed three times with 150 μl PBS with 0.2% BSA and 0.09% NaN3 and stained with 3 μg/ml streptavidin PE (BD Biosciences) for 45 minutes at 4° C. Cells were washed, resuspended in 200 μl PBS with 0.2% BSA and 0.09% NaN3, and transferred to a U-shaped 96 well Costar (Corning, Schiphol-Rijik, The Netherlands) plate for flow cytometry using an FACS Canto II flow cytometer (BD Biosciences, Heidelberg, Germany).

[3] = target: T1, human CC chemokine receptor 4 (CCR4); experiment: flow cytometry competition on CCRF-CEM cells; unlabelled IgG titrated, competitor 0.7 nM biotinylated IgG 9E
Method: Further competition experiments were carried out to assess whether or not the test antibodies recognise the same or overlapping epitopes, and to determine their relative affinities for CCR4. Antibodies 9E10J, 9E and KM3060var were tested using labelled 9E as a competitor.
as §1

[4] = target: T1, human CC chemokine receptor 4 (CCR4); experiment: flow cytometry competition on DT-40-CCR4+ cells; IgG titrated, competitor biotinylated MDC (ca. 10 nM)
Method: (§2) The competition binding assays were performed with biotinylated MDC or biotinylated TARC on DT-40-CCR4+ and CCRF-CEM cells. DT40 and CCRF-CEM cells were cultured as described in Example 2. TARC and MDC were biotinylated using standard procedures. The biotinylation process causes some losses, so the concentrations of biotinylated MDC and TARC recited herein are approximate.
(§3) The cells were harvested from culture flasks, washed 2 times with PBS (400×g, 5 min, 4° C.) and resuspended in PBS containing 0.2% BSA and 0.09% NaN3. 1×10^5 cells per well were aliquoted into V-shaped 96-well plates (Greiner Bio-One, Frikenhausen, Germany). Cells were centrifuged (400×g, 5 min, 4° C.) and resuspended in 50 μl IgG, single chain or unlabeled ligand (1:10 dilution series starting on 100/500/26, 4 μg/ml) mixed with a fixed concentration of biotinylated ligand (10 or 20 nM, see legend to FIG. 24). The cells were incubated for 2 hours at 4° C. and mixed with a pipette every 45 min. The cells were washed three times with 150 μl PBS with 0.2% BSA and 0.09% NaN3 and stained with 3 μg/ml streptavidin PE (BD Biosciences) for 45 minutes at 4° C. […] Apparent binding affinities (KD) were calculated according to the following equation derived from previously described methods (Kipriyanov et al, 1997b; Schodin & Kranz, 1993): […]

[5] = target: T1, human CC chemokine receptor 4 (CCR4); experiment: flow cytometry competition on DT-40-CCR4+ cells; IgG titrated, competitor biotinylated TARC (ca. 20 nM)
Method: as §2, §3

[6] = target: T1, human CC chemokine receptor 4 (CCR4); experiment: flow cytometry competition on CCRF-CEM cells; IgG titrated, competitor biotinylated MDC (ca. 10 or 20 nM); second of three IC50 values on CCRF-CEM cells; inhibition of biotinylated MDC
Method: as §2, §3

[7] = target: T1, human CC chemokine receptor 4 (CCR4); experiment: cell-based or functional assay; remark: listed apart in the source
[8] = target: T1, human CC chemokine receptor 4 (CCR4); experiment: flow cytometry, IgG titration on CCR4+ DT40 cells; one site-specific binding fit (Prism)
Method: The IgG forms of antibodies 17G, 9E and KM3060var using various CCR4⁺ cell types were used (see Example 2).
For the flow cytometry experiments, the cells were harvested from the culture flasks, washed 2 times with PBS, re-suspended in PBS with 0.2% BSA and 0.09% NaN₃ and finally aliquoted 1×10⁵ cells per well into V-shaped 96-well plates (Greiner Bio-One, Frickenhausen, Germany). Cells were centrifuged at 400×g for 5 min and then incubated at 4° C. for 45 min with different antibody dilutions.
After washing with PBS with 0.2% BSA and 0.09% NaN₃, the cells were stained with 10 μg/ml of RPE-conjugated goat anti-human IgG (AbDSerotec, Düsseldorf, Germany) for 30 minutes at 4° C. The stained cells were washed, re-suspended in 200 μl PBS with 0.2% BSA and 0.09% NaN₃ and transferred to a U-shaped 96-well plate (Corning, Schiphol-Rijk, The Netherlands) for acquisition on EasyCyte flow cytometer (Guava Technologies, Hayward, Calif., USA).

ADCC of CCRF-CEM cells, EC50 (mean, N=2) [1] [ng/mL]	Kd [2] [nM]	IC50 [3] [nM]	IC50 [4] [nM]	IC50 [5]	IC50 [6] [nM]	ADCC of CCRF-CEM cells with human PBMCs, EC50 [7] [ng/mL]	Ca++ flux in CCRF-CEM cells: signal response to MDC stimulation (% of MDC in the absence of IgGs), IgG 10 µg/mL [7] [%]	Ca++ flux in CCRF-CEM cells: signal response to TARC stimulation (% of TARC alone), IgG 10 µg/mL [7] [%]	Kd [8] [nM]	Binder
8.7	0.09	0.07	0.76	0.26 nM and 0.4 nM	6.28					9E10J IgG (full length human IgG1, lambda) (antibody, V domains shown, also called IgG 9E10J; unmodified 9E10J) VH: QVQLVQSGAEVKKPGSSVKVSCKASGGTFSSYAISWVRQAPGQGLEWMGGIIPIFGTANYAQKFQGRVTMTRDTSTSTVYMELSSLRSEDTAVYYCARRGGSYFDYWGQGTLVTVSS VL: SYVLTQPPSASGTPGQSVTISCSGSTSNIGSHYVFWYQQLPGTAPRLLIYRNHQRPSGVPDRLSGSKSGTSASLAISGLRSEDEADYYCAVWDDTLSGWVFGGGTKLTVLG
		0.38				46	64	3	0.72	9E IgG (full length human IgG1, lambda) (antibody, V domains shown, also called IgG 9E; IgG1 9E) VH: QVQLVQSGAEVKKPGSSVKVSCKASGGTFSNYAISWVRQAPGQGLEWMGGIIPIFGTANYAQKFQGRVTITADESTSTAYMELSSLRSEDTAVYYCARRGGSYFDYWGQGTLVTVSS VL: SYVLTQPPSASGTPGQSVTISCSGSTSNIGSHYVFWYQQLPGTAPRLLIYRNHQRPSGVPDRLSGSKSGTSASLAISGLRSEDEADYYCAVWDDTLSGWVFGGGTKLTVLG
